{
  "source": "paper PMC10564799",
  "target": "SFTSV glycoprotein Gc (SFTSV (Dabie bandavirus), strain JA1-2018)",
  "assay": "cryo-EM structure",
  "note": "Where “and” joins values, the source holds several entries; their conditions need not be identical. Equal entries are not always repeated.",
  "data": [
    {"substance": "SFTSV glycoprotein Gc (natural protein)", "values": [
      {"measurement": "stoichiometry N", "result": "5 and 6"}
    ]}
  ]
}
